Like-named read-outs stand apart in the source and are kept apart here.
Key:
[1] = target: T1, GR (Homo sapiens, UniProt P04150); experiment: GR transactivation reporter gene assay in H1299 cells with ARA67; assay type: cell-based; conditions: 500 ng pSG5-ARA67, MMTV-Luc, cognate ligand
T1 construct: host or cells: H1299
T1 sequence (P04150 1-777): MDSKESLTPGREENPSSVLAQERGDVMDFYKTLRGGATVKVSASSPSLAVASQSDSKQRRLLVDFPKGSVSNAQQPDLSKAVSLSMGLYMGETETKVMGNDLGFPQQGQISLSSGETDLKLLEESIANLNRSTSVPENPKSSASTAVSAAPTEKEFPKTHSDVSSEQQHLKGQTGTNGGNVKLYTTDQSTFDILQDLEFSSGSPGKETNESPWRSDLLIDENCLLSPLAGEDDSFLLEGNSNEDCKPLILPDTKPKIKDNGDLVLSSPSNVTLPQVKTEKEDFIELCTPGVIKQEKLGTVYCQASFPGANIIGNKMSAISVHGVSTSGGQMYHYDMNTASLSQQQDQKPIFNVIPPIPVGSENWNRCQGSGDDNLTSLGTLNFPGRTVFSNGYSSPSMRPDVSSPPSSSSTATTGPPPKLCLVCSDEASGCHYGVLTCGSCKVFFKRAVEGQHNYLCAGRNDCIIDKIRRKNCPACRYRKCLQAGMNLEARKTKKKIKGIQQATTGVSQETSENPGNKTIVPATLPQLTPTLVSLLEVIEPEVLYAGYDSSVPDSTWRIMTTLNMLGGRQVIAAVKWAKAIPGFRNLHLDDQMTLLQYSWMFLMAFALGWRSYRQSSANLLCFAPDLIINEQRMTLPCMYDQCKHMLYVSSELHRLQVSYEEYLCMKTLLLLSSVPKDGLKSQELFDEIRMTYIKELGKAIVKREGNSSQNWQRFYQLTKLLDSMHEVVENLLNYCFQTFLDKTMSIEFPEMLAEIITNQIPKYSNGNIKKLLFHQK
Procedure: (§1) H1299 and COS-1 cells were maintained in Dulbecco's modified Eagle's medium (DMEM) (Life Technologies, Inc.) supplemented with 10% heat inactivated fetal bovine serum (FBS). LNCap cells were maintained in RPMI 1640 supplemented with […]. All media contain 100 units penicillin, 100 μg/ml streptomycin and 2 mM L-glutamine. Cells were seeded to a density of 50-60% confluency for transfection. In transfections where H1299 and COS-1 cells were used, the calcium phosphate precipitation method was used as described (Pan H J, et al. 1999. Endocrine 11:321-327) unless otherwise noted. […] In other reporter gene assays, where ligand treatment was required, cell culture media were changed to DMEM containing 10% charcoal-dextran-stripped FBS (CD-FBS) 2 h before transfection. After 16-18 h transfection, cells were treated with medium containing either vehicle or ligands for another 20-24 h and then cells were harvested. With LNCap cells transfection, the cells were treated with fresh RPMI 1640 containing 10% CD-FBS before transfection with SuperFect performed according to the manufacturer's protocol (Qiagen). After transfection, cells were allowed to recover in fresh RPMI 1640 containing 10% CD-FBS for 8-12 h, and then treated with either vehicle or ligands for another 20-24 h before harvesting. Each experiment was repeated at least three times.

[2] = test system: PSA expression in LNCaP cells; experiment: DHT induced PSA expression in LNCaP cells transfected with ARA67 (Western blot); assay type: cell-based, human; conditions: pSG5-ARA67 transfected
Procedure: as §1, with “times. […]” for “times.”

[3] = test system: AR (ARN, ARDBD, ARLBD); experiment: GST pull-down assay ARA67 / AR; assay type: binding, human
Procedure: GST-ARN, GST-ARA67 fusion proteins, and GST control protein were expressed in BL21 (DE3)pLysS bacteria strain (Stratagene) and purified with glutathione-Sepharose beads as instructed by the manufacturer (Amersham Pharmacia). In vitro [^35S]methionine-labeled AR, ARN, AR DBD, AR LBD and ARA67 proteins were generated using TNT-coupled Reticulocyte Lysate Systems (Promega). For in vitro interaction, mixtures of glutathione beads bound GST fusion proteins and 5 μl [^35S]methionine-labeled input proteins in 100 μl interaction buffer (20 mM Tris/pH8.0, 60 mM NaCl, 6 mM MgCl2, 1 mM EDTA, 0.05% Nonidet P-40, 1 mM DTT, 8% glycerol, 1 mM PMSF) were incubated in the presence or absence of 10 μM dihydrotestosterone (DHT) on a rotating disk at 4° C. for 2 h. After washing with NETN buffer (20 mM Tris/pH8.0, 100 mM NaCl, 6 mM MgCl2, 1 mM EDTA, 0.5% Nonidet P-40, 1 mM DTT, 8% glycerol, 1 mM PMSF) four times, the bound proteins were separated on 8-13% SDS-PAGE and visualized by autoradiography.

[4] = test system: AR N/C interaction; experiment: AR N/C interaction, mammalian two-hybrid assay in COS-1 cells; assay type: cell-based, human; conditions: 10 nM DHT
Procedure: as §1

[5] = test system: AR; experiment: AR protein level in H1299 cells (Western blot); assay type: cell-based, human; conditions: pSG5-AR and pKH3-ARA67 1 to 6
Procedure: Protein samples collected from the cells were separated on 8% SDS-PAGE and transferred to nitrocellulose membranes. Membranes were blocked with 5% nonfat milk in TBST buffer (150 mM NaCl, 10 mM Tris/pH8.0, and 0.5% Tween-20) at room temperature for 1 h. Then the membranes were immunoblotted with primary antibodies for 2 h at room temperature or overnight at 4° C., followed by incubation with secondary antibodies for 1 h at room temperature. Blots were developed with the AP color developing reagents (Bio-Rad).

Sequence of AR N/C interaction (P10275 552-919 limits assumed): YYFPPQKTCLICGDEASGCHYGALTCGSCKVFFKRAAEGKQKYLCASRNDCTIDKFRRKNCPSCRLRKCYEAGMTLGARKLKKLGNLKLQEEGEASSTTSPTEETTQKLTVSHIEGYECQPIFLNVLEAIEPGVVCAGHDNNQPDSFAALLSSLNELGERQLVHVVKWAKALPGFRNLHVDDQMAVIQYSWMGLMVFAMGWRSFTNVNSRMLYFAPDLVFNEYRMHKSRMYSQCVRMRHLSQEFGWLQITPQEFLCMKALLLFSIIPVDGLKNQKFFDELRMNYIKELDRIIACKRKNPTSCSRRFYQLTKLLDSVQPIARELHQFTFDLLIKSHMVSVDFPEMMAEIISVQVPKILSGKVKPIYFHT
Sequence of AR N/C interaction (P10275 1-559 partner limits assumed): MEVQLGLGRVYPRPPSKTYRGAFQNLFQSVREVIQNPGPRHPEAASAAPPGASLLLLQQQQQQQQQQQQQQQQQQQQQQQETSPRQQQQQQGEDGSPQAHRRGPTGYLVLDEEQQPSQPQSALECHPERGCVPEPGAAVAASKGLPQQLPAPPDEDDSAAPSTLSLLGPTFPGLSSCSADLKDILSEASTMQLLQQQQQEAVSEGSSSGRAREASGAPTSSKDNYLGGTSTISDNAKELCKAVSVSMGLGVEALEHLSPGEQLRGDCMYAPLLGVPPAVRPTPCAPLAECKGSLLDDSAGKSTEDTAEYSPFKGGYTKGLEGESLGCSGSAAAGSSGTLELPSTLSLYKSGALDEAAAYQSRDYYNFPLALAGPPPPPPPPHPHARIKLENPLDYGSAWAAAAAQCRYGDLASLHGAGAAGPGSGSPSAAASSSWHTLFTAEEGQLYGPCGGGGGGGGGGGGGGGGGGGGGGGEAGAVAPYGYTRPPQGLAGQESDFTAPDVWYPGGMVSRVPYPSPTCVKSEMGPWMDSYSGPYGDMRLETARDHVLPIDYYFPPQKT
Sequence of AR (P10275 with tags, fused parts or gaps DEL79-80/DUP473-473): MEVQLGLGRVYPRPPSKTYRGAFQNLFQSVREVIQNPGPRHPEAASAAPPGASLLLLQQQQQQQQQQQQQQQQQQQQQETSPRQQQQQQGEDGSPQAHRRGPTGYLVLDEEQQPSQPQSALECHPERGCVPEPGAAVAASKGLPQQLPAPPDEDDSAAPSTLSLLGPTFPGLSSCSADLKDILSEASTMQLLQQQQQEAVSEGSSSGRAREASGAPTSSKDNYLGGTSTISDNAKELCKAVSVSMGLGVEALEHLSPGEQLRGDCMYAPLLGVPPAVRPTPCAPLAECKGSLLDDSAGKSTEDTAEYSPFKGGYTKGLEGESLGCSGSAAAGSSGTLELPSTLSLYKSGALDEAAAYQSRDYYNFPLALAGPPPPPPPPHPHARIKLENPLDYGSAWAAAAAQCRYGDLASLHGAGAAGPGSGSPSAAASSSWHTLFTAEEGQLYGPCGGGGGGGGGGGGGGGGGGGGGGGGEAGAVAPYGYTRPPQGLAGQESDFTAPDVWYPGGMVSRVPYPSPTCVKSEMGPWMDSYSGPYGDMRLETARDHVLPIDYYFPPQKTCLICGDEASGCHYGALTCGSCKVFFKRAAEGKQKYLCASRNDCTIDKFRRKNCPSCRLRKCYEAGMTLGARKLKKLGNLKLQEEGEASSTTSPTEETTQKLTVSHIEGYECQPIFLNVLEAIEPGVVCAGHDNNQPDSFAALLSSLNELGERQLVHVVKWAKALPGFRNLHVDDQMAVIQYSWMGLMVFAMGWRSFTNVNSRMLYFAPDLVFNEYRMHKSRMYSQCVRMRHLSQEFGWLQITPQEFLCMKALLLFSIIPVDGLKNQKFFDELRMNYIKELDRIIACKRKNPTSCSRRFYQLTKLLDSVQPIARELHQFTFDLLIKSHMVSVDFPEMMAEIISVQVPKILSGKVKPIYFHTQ

B1: ARA67: AR N-terminal interacting protein of 585 amino acids (SEQ ID NO:1), matches PAT1; functions as a repressor of AR (protein)
chain: MAAVELEWIPETLYNTAISAVVDNYIRSRRDIRSLPENIQFDVYYKLYQQGRLCQLGSEFCELEVFAKVLRALDKRHLLHHCFQALMDHGVKVASVLAYSFSRRCSYIAESDAAVKEKAIQVGFVLGGFLSDAGWYSDAEKVFLSCLQLCTLHDEMLHWFRAVECCVRLLHVRNGNCKYHLGEETFKLAQTYMDKLSKHGQQANKAALYGELCALLFAKSHYDEAYKWCIEAMKEITAGLPVKVVVDVLRQASKACVVKREFKKAEQLIKHAVYLARDHFGSKHPKYSDTLLDYGFYLLNVDNICQSVAIYQAALDIRQSVFGGKNIHVATAHEDLAYSSYVHQYSSGKFDNALFHAERAIGIITHILPEDHLLLASSKRVKALILEEIAIDCHNKETEQRLLQEAHDLHLSSLQLAKKAFGEFNVQTAKHYGNLGRLYQSMRKFKEAEEMHIKAIQIKEQLLGQEDYEVALSVGHLASLYNYDMNQYENAEKLYLRSIAIGKKLFGEGYSGLEYDYRGLIKLYNSIGNYEKVFEYHNVLSNWNRLRDRQYSVTDALEDVSTSPQSTEEVVQSFLISQNVEGPSC
Q: Which results are given for B1?
A: suppression on GR [1]: 20%; DHT induced PSA expression [2]: decreased; interaction with AR LBD [3]: moderately; interaction with ARDBD [3]: very weakly; interaction with ARN [3]: most strongly; interaction with GST-ARN fragment ARN1-140 ([3]; [35S]methionine-labeled ARA67): positive interaction; interaction with ARN ([3]; listed as full length ARA67): strong interaction; interaction with AR, DHT dependence ([3]; presence and absence of 10 μM DHT): DHT independent manner; DHT promoted AR N/C interaction [4]: slightly enhanced; AR protein level [5]: slightly increased

From patent US20080050387A1, “Non-Androgen Dependent Roles for Androgen Receptor and Non-Androgen Related Inhibitors of Androgen Receptor” (priority 2003, published 2008)
